Experimental data: PMC4513852
Where two headings read alike, the source gives them in different places.

Experiments:
[1] = biological target: Hin F106T (Salmonella enterica) (UniProt P03013); experiment: native gel or EMSA
[2] = biological target: Hin-Q134C (wt) (Salmonella enterica) (UniProt P03013); experiment: cross-linking
[3] = biological target: Hin M109Q (Salmonella enterica) (UniProt P03013); experiment: native gel or EMSA
[4] = biological target: Hin F106S (Salmonella enterica) (UniProt P03013); experiment: native gel or EMSA
[5] = biological target: Hin F106Q (Salmonella enterica) (UniProt P03013); experiment: native gel or EMSA
[6] = biological target: Hin M109W (Salmonella enterica) (UniProt P03013); experiment: native gel or EMSA
[7] = biological target: Hin F106W (Salmonella enterica) (UniProt P03013); experiment: native gel or EMSA
[8] = biological target: Hin M109R (Salmonella enterica) (UniProt P03013); experiment: native gel or EMSA
[9] = biological target: Hin F106P (Salmonella enterica) (UniProt P03013); experiment: native gel or EMSA
[10] = biological target: Hin F106Y (Salmonella enterica) (UniProt P03013); experiment: native gel or EMSA
[11] = biological target: Hin F106Y (Salmonella enterica) (UniProt P03013)
[12] = biological target: Hin F106H (Salmonella enterica) (UniProt P03013); experiment: native gel or EMSA
[13] = biological target: Hin F105C (Salmonella enterica) (UniProt P03013); experiment: native gel or EMSA
[14] = biological target: Hin M109K (Salmonella enterica) (UniProt P03013); experiment: native gel or EMSA
[15] = biological target: Hin F106R (Salmonella enterica) (UniProt P03013); experiment: native gel or EMSA
[16] = biological target: Hin M109F (Salmonella enterica) (UniProt P03013); experiment: native gel or EMSA
[17] = biological target: Hin F106C (Salmonella enterica) (UniProt P03013); experiment: native gel or EMSA
[18] = biological target: Hin M109H (Salmonella enterica) (UniProt P03013); experiment: native gel or EMSA
[19] = biological target: Hin M109H (Salmonella enterica) (UniProt P03013); experiment: native gel or EMSA; remark: listed apart in the source
[20] = biological target: Hin F105Q (Salmonella enterica) (UniProt P03013); experiment: native gel or EMSA
[21] = biological target: Hin F105V (Salmonella enterica) (UniProt P03013); experiment: native gel or EMSA
[22] = biological target: Hin F105M (Salmonella enterica) (UniProt P03013); experiment: native gel or EMSA
[23] = biological target: Hin F106A (Salmonella enterica) (UniProt P03013); experiment: native gel or EMSA
[24] = biological target: Hin F105I (Salmonella enterica) (UniProt P03013); experiment: native gel or EMSA
[25] = biological target: Hin M109N (Salmonella enterica) (UniProt P03013); experiment: native gel or EMSA
[26] = biological target: Hin F106L (Salmonella enterica) (UniProt P03013); experiment: native gel or EMSA
[27] = biological target: Hin F106E (Salmonella enterica) (UniProt P03013); experiment: native gel or EMSA
[28] = biological target: Hin F106N (Salmonella enterica) (UniProt P03013); experiment: native gel or EMSA
[29] = biological target: Hin F105L (Salmonella enterica) (UniProt P03013); experiment: native gel or EMSA
[30] = biological target: Hin F105W (Salmonella enterica) (UniProt P03013); experiment: native gel or EMSA
[31] = biological target: Hin F106D (Salmonella enterica) (UniProt P03013); experiment: native gel or EMSA
[32] = biological target: Hin F106I (Salmonella enterica) (UniProt P03013); experiment: native gel or EMSA
[33] = biological target: Hin F106G (Salmonella enterica) (UniProt P03013); experiment: native gel or EMSA
[34] = biological target: Hin M109Y (Salmonella enterica) (UniProt P03013); experiment: native gel or EMSA
[35] = biological target: Hin F105H (Salmonella enterica) (UniProt P03013); experiment: native gel or EMSA
[36] = biological target: Hin F106M (Salmonella enterica) (UniProt P03013); experiment: native gel or EMSA
[37] = biological target: Hin F106K (Salmonella enterica) (UniProt P03013); experiment: native gel or EMSA
[38] = biological target: Hin F106V (Salmonella enterica) (UniProt P03013); experiment: native gel or EMSA

“Hin F106T (from UniProt P03013 1-190) (enzyme)” showed a stoichiometry N [1] of 2.

“Hin-Q134C (wt) (from UniProt P03013 1-190) (enzyme)” gave a percent crosslinked products [2] of 65%.

Substance “Hin M109Q (from UniProt P03013 1-190) (enzyme)” has a stoichiometry N [3] of 4.

“Hin F106S (from UniProt P03013 1-190) (enzyme)” gave a stoichiometry N [4] of 2.

For “Hin F106Q (from UniProt P03013 1-190) (enzyme)”, the stoichiometry N [5] was 2.

For “Hin M109W (from UniProt P03013 1-190) (enzyme)”, the stoichiometry N [6] was 4.

For “Hin F106W (from UniProt P03013 1-190) (enzyme)”, the stoichiometry N [7] was 2.

“Hin M109R (from UniProt P03013 1-190) (enzyme)” gave a stoichiometry N [8] of 4.

For “Hin F106P (from UniProt P03013 1-190) (enzyme)”, the stoichiometry N [9] was 2.

“Hin F106Y (from UniProt P03013 1-190) (enzyme)” showed a stoichiometry N [10] of 2 and a Fis-activated in vitro DNA inversion rate, relative to wild type (% of the wild-type rate) [11] of 10.

“Hin F106H (from UniProt P03013 1-190) (enzyme)” gave a stoichiometry N [12] of 2.

With “Hin F105C (from UniProt P03013 1-190) (enzyme)” the stoichiometry N [13] was 4.

“Hin M109K (from UniProt P03013 1-190) (enzyme)” gave a stoichiometry N [14] of 4.

Work on “Hin F106R (from UniProt P03013 1-190) (enzyme)” yielded a stoichiometry N [15] of 2.

In the case of “Hin M109F (from UniProt P03013 1-190) (enzyme)”, the stoichiometry N [16] was 2.

In the case of “Hin F106C (from UniProt P03013 1-190) (enzyme)”, the stoichiometry N [17] was 2.

“Hin M109H (from UniProt P03013 1-190) (enzyme)” showed a stoichiometry N [18] of 4 and a stoichiometry N [19] of 2.

“Hin F105Q (from UniProt P03013 1-190) (enzyme)” gave a stoichiometry N [20] of 4.

Work on “Hin F105V (from UniProt P03013 1-190) (enzyme)” yielded a stoichiometry N [21] of 4.

“Hin F105M (from UniProt P03013 1-190) (enzyme)” showed a stoichiometry N [22] of 4.

Substance “Hin F106A (from UniProt P03013 1-190) (enzyme)” has a stoichiometry N [23] of 2.

“Hin F105I (from UniProt P03013 1-190) (enzyme)” was tested, and the stoichiometry N [24] was 4.

With “Hin M109N (from UniProt P03013 1-190) (enzyme)” the stoichiometry N [25] was 2.

“Hin F106L (from UniProt P03013 1-190) (enzyme)” gave a stoichiometry N [26] of 2.

Work on “Hin F106E (from UniProt P03013 1-190) (enzyme)” yielded a stoichiometry N [27] of 2.

For “Hin F106N (from UniProt P03013 1-190) (enzyme)”, the stoichiometry N [28] was 2.

Substance “Hin F105L (from UniProt P03013 1-190) (enzyme)” has a stoichiometry N [29] of 4.

“Hin F105W (from UniProt P03013 1-190) (enzyme)” was tested, and the stoichiometry N [30] was 4.

With “Hin F106D (from UniProt P03013 1-190) (enzyme)” the stoichiometry N [31] was 2.

Work on “Hin F106I (from UniProt P03013 1-190) (enzyme)” yielded a stoichiometry N [32] of 2.

With “Hin F106G (from UniProt P03013 1-190) (enzyme)” the stoichiometry N [33] was 2.

“Hin M109Y (from UniProt P03013 1-190) (enzyme)” gave a stoichiometry N [34] of 4.

Substance “Hin F105H (from UniProt P03013 1-190) (enzyme)” has a stoichiometry N [35] of 4.

“Hin F106M (from UniProt P03013 1-190) (enzyme)” was tested, and the stoichiometry N [36] was 2.

With “Hin F106K (from UniProt P03013 1-190) (enzyme)” the stoichiometry N [37] was 2.

Work on “Hin F106V (from UniProt P03013 1-190) (enzyme)” yielded a stoichiometry N [38] of 2.
